One data set concerns T1, unmodified H1.0 peptide.
T1 sequence: AKPVKASKPKKAKPVKPK

A further data set deals with T2, H1.0K180me2 peptide.
T2 sequence: AKPVKASKPKKAKPVKPK

In data set [1] the test system is full length human H1.0 protein.

With G9A methyltransferase, in the data set on unmodified H1.0 peptide, the “estimated methylation efficiency, LC-MS” value was “an estimated methylation efficiency of about 99%”; the “in vitro methylation with tritium-labeled methyl donor, gel autoradiography” value was “The appearance of a band at 4 kDa shows that The G9A methyltransferase capable of methylating H1.0 peptide”; the “peptides dimethylated at K180, LC-MS spectral counts” value is reported as 99.9% of all peptides. Also, in the data set on H1.0K180me2 peptide, the “further methylated peptide H1.0K166me1K180me2, LC-MS” value was 1.27% of the total peptide in the reaction; the “further methylated peptide H1.0K174me1K180me3, LC-MS” value is reported as 1.06% of the total peptide in the reaction; the “further methylated peptide H1.0K174me3K175me3K177me1K180me2, LC-MS” value is 0.35% of the total peptide in the reaction; the “peptides further methylated, LC-MS” value is reported as “only 2.64% of peptides are further methylated”. In data set [1], the “in vitro methylation assay with increasing amounts of G9A” value is “G9A is capable of dimethylating full length H1.0 at K180” and the “sites of methylation, LC-MS” value is recorded as “G9A methylates C-terminal lysine residues, including H1.0K180me2”.

As to GLP methyltransferase, in the data set on unmodified H1.0 peptide, the “peptides dimethylated at K180, LC-MS spectral counts” value is 96.6% of all peptides. Moreover, in the data set with H1.0K180me2 peptide, the “peptides further methylated, LC-MS” value is recorded as 1.02% of peptides are further methylated. Moreover, in data set [1], the “sites of methylation, LC-MS” value was “GLP methylates a large number of lysine residues on the C-terminal tail of H1.0, lacking the specificity of G9A”.

The values are drawn from US20210302429.
